Legend:
SHP2-C SH2 = assay: SH2 binding enrichment of the phosphorylated peptide, bacterial display (enrichment ratio); higher = better substrate or ligand; peptides without Tyr show the background
c-Src SH2 = assay: as above
Grb2 SH2 = Grb2 SH2 (UniProt P62993); assay: as above
EPHB1 = EPHB1 (UniProt P54762); assay: phosphorylation enrichment, bacterial display (enrichment ratio); higher = better substrate or ligand; peptides without Tyr show the background
Fyn = Fyn (UniProt P06241); assay: as above
Fes = Fes (UniProt P07332); assay: as above
c-Abl (mouse) = assay: as above
MERTK = MERTK (UniProt Q12866); assay: as above
FGFR1 = FGFR1 (UniProt P11362); assay: as above
AncSZ = assay: as above
c-Src = assay: as above
EPHB2 = EPHB2 (UniProt P29323); assay: as above
Jak2 = Jak2 (UniProt O60674); assay: as above
Fer (mouse) = assay: as above
FGFR3 = FGFR3 (UniProt P22607); assay: as above
Hck = Hck (UniProt P08631); assay: as above
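Wherever SH2 binding enrichment of the phosphorylated peptide, bacterial display is given: peptide library displayed on the E. coli surface as eCPX fusions, selected cells deep-sequenced, score is each peptide's frequency after selection divided by its frequency in the input.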
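Wherever phosphorylation enrichment, bacterial display is given: 11-residue human phosphosite peptides and single-mutation variants displayed on the E. coli surface, counted by deep sequencing, each peptide's frequency after selection divided by its frequency in the unselected input library; frequency after pTyr selection over input frequency; kinase dosed for 20-30% of maximal phosphorylation in three min.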

Sequence of EPHB1 (P54762 whole entry, looked up): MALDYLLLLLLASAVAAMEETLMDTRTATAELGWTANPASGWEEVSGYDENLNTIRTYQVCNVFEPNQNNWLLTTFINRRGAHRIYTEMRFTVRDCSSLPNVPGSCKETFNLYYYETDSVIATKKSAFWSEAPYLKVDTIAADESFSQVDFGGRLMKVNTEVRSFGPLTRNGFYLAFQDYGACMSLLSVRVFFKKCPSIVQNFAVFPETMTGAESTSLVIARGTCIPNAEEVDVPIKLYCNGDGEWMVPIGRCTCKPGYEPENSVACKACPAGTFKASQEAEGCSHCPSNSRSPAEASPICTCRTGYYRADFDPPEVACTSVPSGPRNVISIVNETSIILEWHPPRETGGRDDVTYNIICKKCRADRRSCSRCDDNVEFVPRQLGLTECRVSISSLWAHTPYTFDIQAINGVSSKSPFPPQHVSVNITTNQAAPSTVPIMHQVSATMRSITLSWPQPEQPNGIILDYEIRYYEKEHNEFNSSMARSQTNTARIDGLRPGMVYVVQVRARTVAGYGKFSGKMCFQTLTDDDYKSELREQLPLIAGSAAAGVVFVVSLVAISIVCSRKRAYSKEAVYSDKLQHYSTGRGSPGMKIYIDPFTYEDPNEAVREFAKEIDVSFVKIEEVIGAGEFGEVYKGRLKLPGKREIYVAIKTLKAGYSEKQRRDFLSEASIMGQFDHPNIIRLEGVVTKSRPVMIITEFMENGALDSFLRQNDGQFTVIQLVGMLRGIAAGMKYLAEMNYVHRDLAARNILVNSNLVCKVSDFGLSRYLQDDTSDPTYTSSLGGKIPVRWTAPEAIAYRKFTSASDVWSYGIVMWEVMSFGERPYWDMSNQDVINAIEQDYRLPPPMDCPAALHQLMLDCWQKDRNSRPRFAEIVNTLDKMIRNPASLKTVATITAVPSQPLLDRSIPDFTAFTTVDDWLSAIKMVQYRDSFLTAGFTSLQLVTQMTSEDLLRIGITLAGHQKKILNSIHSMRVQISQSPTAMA
Sequence of FGFR1 (P11362 whole entry, looked up): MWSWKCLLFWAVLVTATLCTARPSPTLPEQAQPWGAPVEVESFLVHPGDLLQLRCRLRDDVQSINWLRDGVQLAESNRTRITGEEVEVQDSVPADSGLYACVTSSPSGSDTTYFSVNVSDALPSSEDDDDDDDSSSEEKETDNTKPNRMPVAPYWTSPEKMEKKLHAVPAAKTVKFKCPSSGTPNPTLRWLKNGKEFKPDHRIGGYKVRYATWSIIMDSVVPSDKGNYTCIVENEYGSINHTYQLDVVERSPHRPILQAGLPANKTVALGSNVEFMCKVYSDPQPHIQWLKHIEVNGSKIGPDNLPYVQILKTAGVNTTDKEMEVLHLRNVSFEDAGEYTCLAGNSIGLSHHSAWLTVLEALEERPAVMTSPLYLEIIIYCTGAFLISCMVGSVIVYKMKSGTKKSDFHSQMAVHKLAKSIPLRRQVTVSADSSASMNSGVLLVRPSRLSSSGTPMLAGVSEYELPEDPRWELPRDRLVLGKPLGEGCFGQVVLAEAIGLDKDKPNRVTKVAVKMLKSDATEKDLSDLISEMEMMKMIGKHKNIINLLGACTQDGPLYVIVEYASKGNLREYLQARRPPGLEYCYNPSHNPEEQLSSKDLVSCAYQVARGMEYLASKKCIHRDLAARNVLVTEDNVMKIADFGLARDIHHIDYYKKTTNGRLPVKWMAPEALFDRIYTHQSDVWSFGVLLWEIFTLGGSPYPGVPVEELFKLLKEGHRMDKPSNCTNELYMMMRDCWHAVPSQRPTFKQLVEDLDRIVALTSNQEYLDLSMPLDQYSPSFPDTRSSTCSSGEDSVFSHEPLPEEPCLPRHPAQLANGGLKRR
Sequence of EPHB2 (P29323 whole entry, looked up): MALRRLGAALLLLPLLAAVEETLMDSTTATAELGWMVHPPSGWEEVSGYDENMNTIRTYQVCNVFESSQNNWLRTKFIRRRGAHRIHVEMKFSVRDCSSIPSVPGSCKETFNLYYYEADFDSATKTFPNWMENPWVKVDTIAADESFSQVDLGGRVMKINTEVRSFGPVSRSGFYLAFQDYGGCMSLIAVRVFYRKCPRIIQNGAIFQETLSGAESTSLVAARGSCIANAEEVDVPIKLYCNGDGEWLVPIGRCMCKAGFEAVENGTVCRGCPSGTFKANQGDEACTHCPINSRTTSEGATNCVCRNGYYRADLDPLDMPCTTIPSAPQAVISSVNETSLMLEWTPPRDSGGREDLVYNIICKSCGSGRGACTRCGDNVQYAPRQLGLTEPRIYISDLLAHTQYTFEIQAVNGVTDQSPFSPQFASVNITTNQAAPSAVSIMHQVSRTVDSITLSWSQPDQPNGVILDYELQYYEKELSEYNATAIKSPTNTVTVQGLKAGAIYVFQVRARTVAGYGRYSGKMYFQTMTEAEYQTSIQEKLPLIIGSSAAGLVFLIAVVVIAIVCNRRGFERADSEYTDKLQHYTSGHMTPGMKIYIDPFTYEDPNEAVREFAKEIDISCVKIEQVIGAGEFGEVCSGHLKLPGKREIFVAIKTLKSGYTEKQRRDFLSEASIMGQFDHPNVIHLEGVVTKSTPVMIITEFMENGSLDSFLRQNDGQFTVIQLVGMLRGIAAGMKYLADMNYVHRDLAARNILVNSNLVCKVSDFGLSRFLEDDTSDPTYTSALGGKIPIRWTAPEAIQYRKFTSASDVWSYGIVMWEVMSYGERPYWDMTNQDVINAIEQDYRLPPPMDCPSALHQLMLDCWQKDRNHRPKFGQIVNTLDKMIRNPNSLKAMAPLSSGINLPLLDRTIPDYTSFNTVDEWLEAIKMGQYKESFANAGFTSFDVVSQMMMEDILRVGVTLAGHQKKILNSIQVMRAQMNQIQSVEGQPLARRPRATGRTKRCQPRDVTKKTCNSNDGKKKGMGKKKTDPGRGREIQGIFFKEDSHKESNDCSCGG
Sequence of Jak2 (O60674 whole entry, looked up): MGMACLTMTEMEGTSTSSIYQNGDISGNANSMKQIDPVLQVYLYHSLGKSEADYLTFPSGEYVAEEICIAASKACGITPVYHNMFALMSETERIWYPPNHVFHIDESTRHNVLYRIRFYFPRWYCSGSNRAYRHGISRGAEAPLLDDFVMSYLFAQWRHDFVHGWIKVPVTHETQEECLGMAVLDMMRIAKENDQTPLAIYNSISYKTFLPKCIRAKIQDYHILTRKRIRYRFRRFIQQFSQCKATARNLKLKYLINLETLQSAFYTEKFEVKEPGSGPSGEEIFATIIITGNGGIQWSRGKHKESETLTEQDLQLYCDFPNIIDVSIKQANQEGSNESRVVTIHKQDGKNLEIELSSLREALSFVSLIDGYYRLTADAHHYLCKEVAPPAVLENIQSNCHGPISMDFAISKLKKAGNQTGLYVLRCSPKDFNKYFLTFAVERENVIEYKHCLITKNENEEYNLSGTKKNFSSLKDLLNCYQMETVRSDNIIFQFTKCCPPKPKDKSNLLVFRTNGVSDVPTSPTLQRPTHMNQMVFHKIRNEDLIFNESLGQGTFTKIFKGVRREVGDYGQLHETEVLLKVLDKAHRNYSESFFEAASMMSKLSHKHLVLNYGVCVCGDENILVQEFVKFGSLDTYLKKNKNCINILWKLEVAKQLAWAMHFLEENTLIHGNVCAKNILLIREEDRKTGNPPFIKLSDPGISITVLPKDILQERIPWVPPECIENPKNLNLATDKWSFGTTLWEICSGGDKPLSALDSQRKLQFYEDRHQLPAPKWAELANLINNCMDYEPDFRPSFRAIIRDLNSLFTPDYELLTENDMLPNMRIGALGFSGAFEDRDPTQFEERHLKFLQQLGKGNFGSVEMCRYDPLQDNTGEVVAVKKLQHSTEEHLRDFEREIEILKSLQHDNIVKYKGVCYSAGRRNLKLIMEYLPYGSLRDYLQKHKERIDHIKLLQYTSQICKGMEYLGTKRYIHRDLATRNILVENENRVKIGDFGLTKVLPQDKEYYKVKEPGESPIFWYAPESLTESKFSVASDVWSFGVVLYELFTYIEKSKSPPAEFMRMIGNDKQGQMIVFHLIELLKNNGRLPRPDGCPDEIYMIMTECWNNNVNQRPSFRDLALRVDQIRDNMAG
Sequence of Fyn (P06241 whole entry, looked up): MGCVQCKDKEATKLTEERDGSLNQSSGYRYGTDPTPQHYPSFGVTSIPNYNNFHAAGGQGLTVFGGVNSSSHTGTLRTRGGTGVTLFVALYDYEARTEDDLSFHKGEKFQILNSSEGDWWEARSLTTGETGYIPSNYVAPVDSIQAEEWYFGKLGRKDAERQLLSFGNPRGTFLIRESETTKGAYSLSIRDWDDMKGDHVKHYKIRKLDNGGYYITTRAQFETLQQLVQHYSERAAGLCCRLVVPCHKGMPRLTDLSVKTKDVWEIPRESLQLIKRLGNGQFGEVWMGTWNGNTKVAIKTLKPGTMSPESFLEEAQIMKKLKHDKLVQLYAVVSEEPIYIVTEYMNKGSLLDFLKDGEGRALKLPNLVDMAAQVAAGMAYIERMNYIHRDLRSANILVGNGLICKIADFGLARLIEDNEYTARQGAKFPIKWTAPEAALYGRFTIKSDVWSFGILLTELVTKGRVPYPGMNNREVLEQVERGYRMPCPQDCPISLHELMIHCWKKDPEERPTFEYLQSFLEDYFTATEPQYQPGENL
Sequence of Hck (P08631 whole entry, looked up, the tested form may be a part): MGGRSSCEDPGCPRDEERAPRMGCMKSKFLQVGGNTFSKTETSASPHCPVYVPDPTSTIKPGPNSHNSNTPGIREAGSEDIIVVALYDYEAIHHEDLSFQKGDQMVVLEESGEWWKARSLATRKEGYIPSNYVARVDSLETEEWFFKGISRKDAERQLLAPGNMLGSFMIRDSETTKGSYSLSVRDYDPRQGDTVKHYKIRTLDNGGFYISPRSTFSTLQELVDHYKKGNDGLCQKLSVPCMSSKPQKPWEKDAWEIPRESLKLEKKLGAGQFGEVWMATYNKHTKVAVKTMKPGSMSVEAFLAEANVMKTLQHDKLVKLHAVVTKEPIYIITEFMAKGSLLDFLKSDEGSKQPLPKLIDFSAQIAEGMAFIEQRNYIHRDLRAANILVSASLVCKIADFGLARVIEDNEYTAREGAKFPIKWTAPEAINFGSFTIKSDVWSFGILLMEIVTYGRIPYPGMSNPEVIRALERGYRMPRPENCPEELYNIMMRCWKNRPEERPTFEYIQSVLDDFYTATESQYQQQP

| Sequence | SH2 binding enrichment (SHP2-C SH2) | SH2 binding enrichment (c-Src SH2) | SH2 binding enrichment (Grb2 SH2) | phosphorylation enrichment (EPHB1) | phosphorylation enrichment (Fyn) | phosphorylation enrichment (Fes) | phosphorylation enrichment (c-Abl (mouse)) | phosphorylation enrichment (MERTK) | phosphorylation enrichment (FGFR1) | phosphorylation enrichment (AncSZ) | phosphorylation enrichment (c-Src) | phosphorylation enrichment (EPHB2) | phosphorylation enrichment (Jak2) | phosphorylation enrichment (Fer (mouse)) | phosphorylation enrichment (FGFR3) | phosphorylation enrichment (Hck) |
| --- | --- | --- | --- | --- | --- | --- | --- | --- | --- | --- | --- | --- | --- | --- | --- | --- |
| QRIHNYFEHRF [HCN4_Y554_D553N_YF] | 1.22 | 1.31 | 1.16 | 0.543 | 0.441 | 0.692 | 0.34 | 0.567 | 0.719 | 0.647 | 0.493 | 0.443 | 0.34 | 0.343 | 0.374 | 0.409 |
| RGDCMYASLLG [AR_Y269_P271S] | 1.99 | 1.12 | 1.26 | 2.43 | 6.63 | 1.39 | 1.42 | 4.87 | 1.45 | 1.25 | 6 | 1.49 | 1.03 | 1.1 | 1.52 | 7.26 |
| NFNPNYCFAGK [ALK_Y1096_D1091N_YF] | 0.881 | 0.681 | 0.876 | 2.56 | 0.612 | 0.821 | 0.617 | 0.846 | 0.548 | 1.25 | 0.472 | 1.01 | 0.744 | 0.706 | 0.666 | 0.651 |
| QYPDIYAREEV [CRX_Y67_V66I] | 0.299 | 0.552 | 0.687 | 1.63 | 1.84 | 2.14 | 2.12 | 1.48 | 1.23 | 3.09 | 1.54 | 1.02 | 2.02 | 1.29 | 1.41 | 2.6 |
| HESEIYCKVCY [CSRP3_Y57] | 1.81 | 1.8 | 1.58 | 0.925 | 5.52 | 1.25 | 1.01 | 2.65 | 1.03 | 1.41 | 7.01 | 0.782 | 1.14 | 2.51 | 0.855 | 7.96 |
| IMAFFYMCDSA [CASD1_Y382_R386S_YF] | 0.725 | 0.551 | 1.1 | 0.896 | 0.548 | 1.78 | 1.11 | 0.401 | 0.791 | 1.44 | 0.596 | 0.782 | 1.41 | 0.805 | 1.12 | 0.658 |
| ESLRRYLENGK [HLA-B_Y195_W191S] | 0.473 | 0.436 | 0.813 | 0.431 | 0.384 | 0.629 | 0.548 | 0.392 | 0.397 | 0.629 | 0.34 | 0.362 | 0.519 | 0.454 | 0.45 | 0.461 |
| PSDPSYEDMRE [BMPR1A_Y467] | 0.324 | 1.12 | 0.832 | 0.901 | 0.848 | 1.59 | 0.831 | 0.504 | 0.758 | 2.49 | 0.534 | 0.495 | 1.45 | 1.26 | 1.27 | 1.28 |
| LPEHPYHSRPR [NDUFA8_Y142_N140H] | 0.538 | 0.704 | 0.958 | 0.861 | 2.04 | 3.08 | 0.828 | 1.17 | 1.02 | 1.97 | 1.27 | 1.57 | 0.823 | 1.03 | 2.71 | 1.9 |
| SLDLSYFTTSS [EMD_Y181_P183T_YF] | 0.675 | 0.55 | 0.803 | 0.468 | 0.38 | 0.836 | 0.644 | 0.371 | 0.499 | 0.876 | 0.382 | 0.475 | 1.04 | 0.37 | 0.605 | 0.451 |
| DLTQDYEEWKR [ORC6_Y232] | 0.647 | 0.55 | 0.982 | 0.796 | 0.707 | 1.47 | 0.84 | 0.526 | 0.509 | 1.8 | 0.696 | 0.882 | 1.28 | 0.715 | 0.862 | 0.845 |
| QVQQIYSDSDL [MIB1_Y376_R371Q] | 0.836 | 0.573 | 0.965 | 1.49 | 6.18 | 1.88 | 1.09 | 4.04 | 0.85 | 1.3 | 5.36 | 2.35 | 1.05 | 7.33 | 0.932 | 3.84 |
| KVQVSYKGETK [HSPA1A_Y107] | 0.656 | 0.493 | 0.875 | 0.442 | 0.426 | 0.511 | 0.85 | 0.387 | 0.429 | 0.608 | 0.352 | 0.449 | 0.428 | 0.378 | 0.432 | 0.346 |
| SIDLGYHKDLQ [NF1_Y1169_G1166D] | 0.486 | 0.544 | 0.661 | 0.46 | 0.51 | 0.777 | 0.557 | 0.531 | 0.607 | 1.17 | 0.552 | 0.478 | 0.856 | 0.503 | 0.485 | 0.454 |
| LLLLFYVVRFC [MPZ_Y177_YF] | 1.9 | 1.14 | 1.69 | 0.741 | 0.637 | 1.21 | 0.863 | 0.805 | 1.47 | 0.918 | 0.726 | 0.443 | 0.664 | 1.14 | 0.742 | 0.472 |
| KVPAIYGVGTR [CPS1_Y162_D165G] | 0.615 | 0.699 | 0.948 | 0.424 | 2.27 | 0.576 | 0.923 | 0.527 | 0.362 | 0.47 | 2.44 | 0.391 | 0.562 | 0.377 | 0.402 | 5.68 |
| QSSEGYDLGDR [KIAA1210_Y564_G565D] | 1.26 | 0.719 | 1.13 | 0.644 | 0.948 | 1.43 | 1.12 | 0.501 | 0.416 | 1.41 | 0.688 | 0.853 | 1.09 | 0.607 | 0.714 | 0.546 |
| VGTKRYMAPKV [ACVRL1_Y375_E379K] | 1.44 | 0.632 | 1.19 | 0.274 | 0.301 | 0.456 | 0.625 | 0.424 | 0.391 | 0.377 | 0.304 | 0.282 | 0.482 | 0.443 | 0.372 | 0.327 |
| HKANEYYPVVI [ADAMTS18_Y764_L769I] | 1.06 | 0.587 | 0.665 | 1.01 | 0.676 | 0.746 | 0.61 | 0.558 | 17.4 | 2.1 | 0.427 | 0.599 | 2.19 | 1.26 | 13.1 | 0.723 |
| FSQETYYRVSN [ABCD1_Y180_Q178E] | 0.628 | 0.654 | 0.841 | 4.43 | 1.77 | 0.812 | 1.03 | 3.78 | 4.96 | 1.26 | 4.41 | 2.73 | 6.03 | 0.492 | 3.85 | 4.2 |
| KGEDFYSVTCH [FHL1_Y149_C150S] | 0.706 | 0.47 | 0.688 | 0.806 | 5.87 | 1.35 | 0.899 | 4.71 | 0.849 | 1.47 | 3.96 | 0.632 | 1.13 | 3.47 | 0.942 | 3.19 |
| VFSTDYFRVGG [NTRK2_Y706_YF] | 0.697 | 0.556 | 0.761 | 0.826 | 0.464 | 0.859 | 0.734 | 0.587 | 6.21 | 1.69 | 0.757 | 0.709 | 8.12 | 0.499 | 3.75 | 0.459 |
| RFLERYIYNRQ [HLA-DPB1_Y57_E62Q] | 1.2 | 0.699 | 0.919 | 1.04 | 0.813 | 1.06 | 0.811 | 0.732 | 0.854 | 1.01 | 0.768 | 0.907 | 0.796 | 0.655 | 0.805 | 0.786 |

More lines, main results first:

| SH2 binding enrichment (SHP2-C SH2) | SH2 binding enrichment (c-Src SH2) | SH2 binding enrichment (Grb2 SH2) | Sequence | phosphorylation enrichment (EPHB1) | phosphorylation enrichment (Fyn) | phosphorylation enrichment (Fes) | phosphorylation enrichment (c-Abl (mouse)) | phosphorylation enrichment (MERTK) | phosphorylation enrichment (FGFR1) | phosphorylation enrichment (AncSZ) | phosphorylation enrichment (c-Src) | phosphorylation enrichment (EPHB2) | phosphorylation enrichment (Jak2) | phosphorylation enrichment (Fer (mouse)) | phosphorylation enrichment (FGFR3) | phosphorylation enrichment (Hck) |
| --- | --- | --- | --- | --- | --- | --- | --- | --- | --- | --- | --- | --- | --- | --- | --- | --- |
| 0.584 | 0.593 | 0.748 | AYGNLYGSRKQ [YIPF7_Y59] | 0.324 | 1.38 | 0.462 | 0.442 | 0.502 | 0.484 | 0.525 | 2.08 | 0.3 | 0.516 | 0.367 | 0.481 | 6.04 |
| 0.752 | 0.883 | 0.945 | QVKEQYQDVPM [PKP2_Y659_K654Q] | 0.555 | 0.65 | 1.98 | 2.19 | 0.565 | 0.835 | 1.15 | 0.573 | 0.762 | 1.12 | 0.86 | 0.914 | 0.701 |
| 0.78 | 0.799 | 1.34 | MHYSNYVSKGS [PDGFRA_Y849_D846Y] | 0.412 | 0.424 | 0.533 | 0.432 | 0.526 | 0.421 | 0.617 | 0.495 | 0.472 | 0.467 | 0.458 | 0.397 | 0.478 |
| 1.79 | 3.48 | 1.27 | CTTTHYNFMCN [TP53_Y234_I232T_YF] | 0.397 | 0.437 | 0.758 | 0.484 | 0.393 | 0.403 | 0.758 | 0.375 | 0.427 | 0.561 | 0.466 | 0.557 | 0.469 |
| 0.697 | 0.442 | 0.877 | SLMNQYVNKKF [RAB7A_Y28] | 0.291 | 0.383 | 0.579 | 0.447 | 0.315 | 0.381 | 0.474 | 0.342 | 0.373 | 0.44 | 0.398 | 0.396 | 0.427 |
| 0.585 | 0.404 | 0.69 | ITQRAYRRHLL [SCN1A_Y1926_I1922T] | 0.427 | 0.444 | 0.557 | 0.547 | 0.585 | 0.442 | 0.63 | 0.622 | 0.417 | 0.573 | 0.403 | 0.48 | 0.457 |
| 1.03 | 0.81 | 0.744 | TVSTRYTQPQP [SARG_Y259] | 0.386 | 0.442 | 0.561 | 0.576 | 0.394 | 0.446 | 0.616 | 0.364 | 0.427 | 0.605 | 0.471 | 0.39 | 0.37 |
| 0.725 | 0.537 | 0.966 | PVGVLYEVKVY [PTS_Y128_K129E] | 0.945 | 0.775 | 1.67 | 2.37 | 0.55 | 0.783 | 1.64 | 0.585 | 0.552 | 1.78 | 0.56 | 1.02 | 0.728 |
| 1.62 | 1.55 | 1.66 | FHLLPYTIRAM [PARS2_Y93_V95I_YF] | 0.504 | 0.5 | 0.972 | 0.621 | 0.373 | 0.547 | 0.825 | 1.02 | 0.588 | 0.708 | 0.454 | 0.533 | 0.541 |
| 0.992 | 1.47 | 0.808 | PYGQWYESHYA [RPS8_Y113_R110G] | 14.5 | 6.11 | 2.16 | 1.06 | 9.28 | 2.7 | 1.55 | 6.96 | 15.1 | 1.09 | 20.6 | 2.15 | 5.96 |
